This is an account of results in article PMC9580340.

This assay deals with soluble dimeric human ACE2, Fc-tagged, biotinylated (ACRO Biosystems AC2-H82F9) (human) (UniProt Q9BYF1). The experiment in a line: SPR.

Consider “SARS-CoV-2 B.1.1.529 S2P spike trimer (binding studies) (domain or fragment)”, for which the Kd lay within 590 to 3800 pM.

For the substance “SARS-CoV-2 D614G S2P spike trimer (binding studies) (domain or fragment)”, the equilibrium dissociation constant (Kd) stood at 730 pM. With “SARS-CoV-2 WA-1 S2P spike trimer (binding studies) (domain or fragment)” the figure was 1100 pM.
